According to paper PMC3034641 (Cancer research, 2010):

T1: THAP1(1-213)-Fc fusion protein (human, UniProt Q9NVV9 1-213)
T1 sequence (looked up): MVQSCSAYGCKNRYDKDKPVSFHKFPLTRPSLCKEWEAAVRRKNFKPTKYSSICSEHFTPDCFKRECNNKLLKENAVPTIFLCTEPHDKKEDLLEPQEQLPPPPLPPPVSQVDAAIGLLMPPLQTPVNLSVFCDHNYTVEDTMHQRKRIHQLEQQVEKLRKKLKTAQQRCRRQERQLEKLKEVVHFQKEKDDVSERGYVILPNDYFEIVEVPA

B1: purified recombinant human CCL21 (Chemicon) (ligand, UniProt O00585 24-134, looked up)
chain: SDGGAQDCCLKYSQRKIPAKVVRSYRKQEPSLGCSIPAILFLPRKRSQAELCADPKELWVQQLMQHLDKTPSPQKPAQGCRKDRGASKTGKKGKGSKGCKRTERSQTPKGP
B2: Chemotrap-1 (THAP1(140-213)-Fc), purified from CHO cells (Fc fusion, human, UniProt Q9NVV9 140-213, looked up)
chain: EDTMHQRKRIHQLEQQVEKLRKKLKTAQQRCRRQERQLEKLKEVVHFQKEKDDVSERGYVILPNDYFEIVEVPA

Tests used:
[1] = target: T1, THAP1(1-213)-Fc fusion protein; assay: SPR
[2] = target: B1; assay: SPR

| Kd [1] | Kd [2] | Binder |
| --- | --- | --- |
| 87 nM |  | B1 |
|  | 102 nM | B2 |
